# Data published in patent US5783663A, “Peptide ligands for affinity purification of fibrinogen” (Bayer Corporation, priority 1998, dated 1998).
# Tests used:
# Ribonuclease S-protein = biological target: T1, Ribonuclease S-protein (Bos taurus, UniProt P61823); assay: Radiological screening of library spiked with YNFEVL-beads against 14C-S-protein, scintillation counting of isolated beads; type: binding
# T1 construct: Ribonuclease S-protein was purchased from Sigma (St. Louis, Mo.); purchased Sigma (St. Louis, Mo.)
# T1 sequence (P61823 47-150 limits assumed): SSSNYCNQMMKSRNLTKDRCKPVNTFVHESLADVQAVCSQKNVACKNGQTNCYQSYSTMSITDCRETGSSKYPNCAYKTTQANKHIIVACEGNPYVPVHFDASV
# Text: Following the protocol of Jentoft et al. (21), aminated beads (resin modified with TOTDA-linker) and proteins were labeled using reductive ^14 C-methylation. The ^14 C-methylated beads are hereafter referred to as ^14 C-Test Beads. The ^14 C-labeled formaldehyde was obtained from Dupont-NEN (55 Ci/mole, Boston, Mass.). Ribonuclease S-protein was purchased from Sigma (St. Louis, Mo.); human fibrinogen, from Chromogenix AB (Molndal, Sweden). To separate ^14 C-labeled protein from non-incorporated ^14 C-formaldehyde, an Econopac 10DG Desalting Column (Biorad, Hercules, Calif.) was employed. The ^14 C-labeled proteins were stored in the labeling buffer, 0.1M sodium phosphate buffer (Fisher, Pittsburgh, Pa.), pH 7, at -18° C. Pure protein solutions were quantitated using A280, with extinction coefficients of 1.5 and 0.73 for fibrinogen and S-protein, respectively. The resulting protein concentrations were 30 μM for ^14 C-S-protein, and 4 μM for ^14 C-fibrinogen. Maximal labeling yield was calculated based on maximum of two ^14 C-labeled methyl groups per mole of amino groups.
# The number of disintegrations per minute, DPM, of radioactive samples was determined using a 1500 TriCarb Liquid Scintillation Analyzer from Packard (Meridan, Conn.) and CytoScint ES scintillation liquid from ICN (Casta Mesa, Calif.). Values of DPM are corrected for the background of the liquid scintillation counter (30-35 DPM) unless specified otherwise.
# Library beads, 20 mg in dry weight per experiment, were first mixed with 1 ml of blocking solution to block non-specific interactions between the peptides and ^14 C-protein. For screenings against S-protein, 2% bovine serum albumin (BSA, Sigma) in PBS containing 0.05% Tween (Sigma) was used as blocking solution. For screenings against fibrinogen, either 2% BSA in PBS with 0.05% Tween or Blocker™Casein (1%) in PBS (Pierce) was used. Each mixture of beads and blocking solution was incubated in a Cryotube (Nunc, Denmark) for 2 hours on a tube rotator.
# The blocked library beads were then exposed to target protein by pipetting the ^14 C-labeled protein directly into the mixture of beads and blocking solution. […] For fibrinogen experiments, 13 μl and 65 μl of the 4 μM ^14 C-fibrinogen solution was added, yielding final fibrinogen concentrations of 50 nM and 250 nM, respectively. The mixtures of beads, blocking solution, and protein solution were further rotated for 1.5 hours (S-protein experiment) and for 1 hour (fibrinogen experiment).
# After completion of blocking and binding, the beads were transferred to a Polyprep column (Biorad) and rinsed with PBS containing 0.05% Tween 20 (Sigma) until the column flow-through reached background DPM levels. The total rinsing volumes were 200 ml and 140 ml for S-protein and fibrinogen, respectively. […]
# S-protein = biological target: T2, S-protein (Bos taurus, UniProt P61823); details: reference (3); cited from earlier work
# T2 sequence (P61823 47-150 limits assumed): T1 sequence (P61823 47-150 limits assumed)
substance,measurement,setting,value
YNFEVL,"amount of protein bound per bead, average","Ribonuclease S-protein; 14C-S-protein 1 µM in PBS with 0.05% Tween 20, 2% BSA, average of isolated positive beads",133 fmol protein/bead
same,radioactivity of 14C-S-protein bound per bead,"Ribonuclease S-protein; 14C-S-protein 1 µM in PBS with 0.05% Tween 20, 2% BSA, background (33 DPM) subtracted",41-243 DPM/bead
same,amount of protein bound per bead,"Ribonuclease S-protein; 14C-S-protein 1 µM in PBS with 0.05% Tween 20, 2% BSA, range over isolated positive beads",49-289 fmol protein/bead
same,peptide to protein ratio (YNFEVL-peptide molecules to 1 S-protein molecule),Ribonuclease S-protein; from average 70 pmol peptide/bead and 133 fmol protein/bead,~500
same,association constant for binding S-protein,S-protein,10^4 -10^5 M^-1
